This is an account of results in patent US8541367B2, “Plasma anti-diabetic NUCB2 peptide (pladin) and uses thereof” (Landing Biotech, Inc., priority 2009, dated 2013).

Values joined by “and” are separate entries in the source; they are usually repeats but may differ in a detail not shown here. Equal values may be shown once. “Also recorded” adds a separate entry of the source.

In data set [1] the test system is db/db mice. Briefly: Blood glucose of db/db mice after injection of test substance. Format: in vivo, mouse. The following applies: for effect of pre-treatment on the anti-diabetic effect of nesfatin-1: GW9662 0.45 μg/g i.v. or Compound C 20 mg/kg i.p. before 100 ug Nesfatin-1 i.v., blood glucose in 6 hours; for effect of pre-injection on the anti-hyperglycemic effect of rPladin: GW9662 0.45 ug/g i.v., rosiglitazone or Compound C 20 ug/g i.p., then 10 nmol rPladin i.v., 3 hours. The procedure:
GW9662, a PPAR-gamma irreversible inhibitor, was i.v. injected into the tail vein of db/db mice at the dose of 0.45 μg per gram body weight. After 30 minutes, 100 ug Nesfatin-1 was injected into the tail vein of db/db mice. Blood glucose was measured in 6 hours.
Compound C, a 5′-AMP-activated protein kinase (AMPK) specific inhibitor, was intraperitoneally injected to db/db mice at the dose of 20 mg per kg body weight. Subsequently, 100 ug Nesfatin-1 was injected into the tail vein of db/db mice. Blood glucose was measured in 6 hours.
(§1) Without anesthesia, mice were placed into a restricting tube. The testing substance such as nesfatin-1 or rPladin was i.v. injected via mice tail vein with a total volume of 150 μL. After that mice were returned to the cages with food and water available freely. In the i.p. injection experiment, mice without anesthesia were injected with the testing substances directly into the peritoneal with a total volume of 200 μL.
db/db mice of 16 to 18 weeks old were i.v. injected with 0.45 ug/g of GW9662 (Sigma, St. Louis, Mo.), i.p. injected with 20 ug/g rosiglitazone (Sigma, St. Louis, Mo.) or 20 ug/g Compound C (Sigma, St. Louis, Mo.), and then randomly assigned to receive the i.v. injection of 10 nmol rPladin or the same volume of saline as the control. Blood glucose was measured at 3 hours after the injection using the glucose meter (Roche, Indianapolis, Ind.).

Data set [2] deals with db/db mice. Briefly: Food intake and body weight of db/db mice. In kind it is in vivo, mouse.
Data set [3] deals with db/db mice. Briefly: Serum nesfatin-1 / pladin in db/db after i.v. plasmin inhibitor (HPLC). Format: in vivo, mouse. The note with it: for circulating (serum) nesfatin-1: 30 minutes after i.v. injection. The procedure: Hypothalamus in acetic acid supplemented with protease inhibitor cocktail tablets (Roche, Indianapolis, Ind.) was homogenized, sonicated and heated at 95° C. for 15 minutes. The samples were then centrifuged at 13,200 rpm at 4° C. for 30 minutes. The supernatants were finally collected as their protein contents were determined by the Bradford assay (Thermo-Fisher Sci. Rockford, Ill.). Mouse serum was freshly prepared by drawing blood through ophthalmectomy. About […] hypothalamic total proteins or 25 μL serum were analyzed with Waters Delta 600E/2487/717 HPLC system using an analytical C18 reverse phase column (4.6×250 mm/5 μm, Hambon, Zhangjiagang, CN). Nesfatin-1 was eluted with a linear gradient from 20%-40% solvent B (solvent A: water with 0.1% trifluoroacetic acid, solvent B: acetonitrile with 0.1% trifluoroacetic acid) for 20 minutes at the flow rate of 1 ml/minute. The purified nesfatin-1 was used as the standard to determine the retention time and plot the standard curve. The fraction collected at the retention time was sent for the mass spectrometry analysis.
Mouse serum was freshly prepared by drawing blood through ophthalmectomy. The sera of plg^−/−lepr^−/− and db/db mice were directly analyzed with Waters Delta 600E/2487/717 HPLC System using a C18 reverse phase column (4.6×250 mm, 5 μm, Hambon, Zhangjiagang, CN) and eluted with a linear gradient from 20%-40% acetonitrile in 0.1% TFA for 20 minutes at the flow rate of 1 ml/minute (Enriori et al., 2007). Compared with db/db mice, the divergent fractions eluted in plg^−/−lepr^−/− mice were collected for the determination of molecular weight using the Applied Biosystems 4800 Proteomics Analyzer (Applied Biosystems). The MS spectra were acquired in the liner mode at a range of peptide mass from 3,000 to 20,000 Dalton.

The next data set deals with post-surgical patients. Put plainly: AMCA treatment of post-surgical hyperglycemia in patients. In kind it is in vivo, human. The following applies: 10 mg/kg i.v. BID, four post-surgical patients, blood glucose before 10-12 mmol/L.
Data set [4] has as its system db/db mice. Put plainly: Blood glucose of db/db mice after injection of test substance. In kind it is in vivo, mouse.
Another data set has as its target plasmin (Homo sapiens, UniProt P00747). Put plainly: Incubation with plasmin in vitro (proteolysis). Format: biochemical. The note with it: incubated with plasmin in vitro. An excerpt: The recovery of hypothalamic nesfatin-1 in plg^−/−lepr^−/− was consistent to its normalization in food intake and body weight. Fasted mice always had less nesfatin-1 in hypothalamus than their freely feeding counterparties (FIG. 2b). Furthermore, plasminogen deficiency provided a unique approach to study the chronic effect of elevated nesfatin-1 in hyperphagic obese animals, which was impossible for the i.c.v. or i.p. administration due to the short half-time of nesfatin-1. Consequently, agrp and npy were found reduced in plg^−/−lepr^−/−, while pomc was elevated compared with plg^+/+lepr^−/− (FIG. 3), contradicting to the previous report that i.c.v. nesfatin-1 didn't alter the expression of pomc, npy and agrp. Consistent to the present finding, the same group reported the up-regulation of pomc by i.p. nesfatin-1 in NTS recently.
Carefully examining the amino acid sequence of pladin (SEQ ID NO: 23), it has several putative cleavage sites by plasmin (FIG. 11A).

The next data set has as its system lean wild-type mice. Briefly: Blood glucose of lean wild-type mice after i.v. injection. Format: in vivo, mouse. The following applies: 10 nmol i.v. How it is done: as §1
The next data set has as its system wild-type mice. Put plainly: Intravenous glucose tolerance test (IV-GTT / IGTT) in wild-type mice. In kind it is in vivo, mouse. The following applies: 10 nmol, i.v. glucose 1.5 g/kg. How it is done: In the intravenous (i.v.) glucose tolerance test (IV-GTT), mice injected intravenously with 1 mg or 1.5 mg glucose per gram of body weight and placed in clean cages. Blood glucose was measured immediately before and at 5, 10, 20, 30, 60 and 120 minutes after the injection of glucose.

For data set [5], the system named is Streptozotocin-induced type-1 diabetic C57BL/6J mice. Briefly: Streptozotocin-induced type-1 diabetic mice, blood glucose. In kind it is in vivo, mouse. The following applies: 10 nmol per mouse i.v. alone or with s.c. insulin 2 ng/mouse. How it is done:
Male C57BL/6J mice (10 weeks) were given intraperitoneal injections of Streptozotocin (STZ) in sodium citrate (pH 4.5) on two consecutive days (100 mg/kg/day). Blood glucose was measured by tail vein sampling using the glucose oxidase enzymatic test. Diabetes was defined as a morning blood glucose reading of >16 mM after STZ. When blood glucose levels exceeded 30 mM, diabetic mice were given 16 ng of porcine insulin (Wangbang, Xuzhou, CN) immediately to prevent the blood glucose being dangerous every second day to prevent weight loss while maintaining blood glucose levels within the hyperglycemic range (16-30 mM). Nesfatin-1 (100 μg/mouse) was i.v. injected either alone or combined with s.c. insulin (2 ng/mouse) to STZ-induced type-I diabetic mice.
Male C57BL/6J mice (10 weeks) were intraperitoneally injected with 100 μg/g/day STZ in 100 mmol/L sodium citrate (pH 4.5) on two consecutive days. Blood glucose was measured by tail vein sampling using the glucose oxidase enzymatic test. When the fasting blood glucose reading was over 16 mmol/L after the STZ injection, the mice were considered to be type-1 diabetic. […]

A further data set relates to rat. Put plainly: 0-3 h food intake of rat after i.p. and i.c.v. injection. The note with it: for food intake: 0-3 h. Format: in vivo.
Data set [6] is described as follows: Clearance and half-life of i.v. peptide in circulation. Format: in vivo, mouse.
The subject of the next data set is mice including db/db. Briefly: Blood insulin in mice after rPladin. In kind it is in vivo, mouse.
Setting [7] is: i.v. plasmin inhibitor to db/db (AMCA 15 mg/day once daily for three days).

plasmin, sequence (P00747 581-810 limits assumed, species assumed): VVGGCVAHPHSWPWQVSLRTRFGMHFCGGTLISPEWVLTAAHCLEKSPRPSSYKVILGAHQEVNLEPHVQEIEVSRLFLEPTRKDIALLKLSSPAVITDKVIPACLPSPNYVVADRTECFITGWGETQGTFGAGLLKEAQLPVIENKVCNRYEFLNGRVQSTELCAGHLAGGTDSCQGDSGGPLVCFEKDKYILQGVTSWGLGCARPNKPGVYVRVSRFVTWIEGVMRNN
plasmin, sequence (P00747 97-580 partner limits assumed, species assumed): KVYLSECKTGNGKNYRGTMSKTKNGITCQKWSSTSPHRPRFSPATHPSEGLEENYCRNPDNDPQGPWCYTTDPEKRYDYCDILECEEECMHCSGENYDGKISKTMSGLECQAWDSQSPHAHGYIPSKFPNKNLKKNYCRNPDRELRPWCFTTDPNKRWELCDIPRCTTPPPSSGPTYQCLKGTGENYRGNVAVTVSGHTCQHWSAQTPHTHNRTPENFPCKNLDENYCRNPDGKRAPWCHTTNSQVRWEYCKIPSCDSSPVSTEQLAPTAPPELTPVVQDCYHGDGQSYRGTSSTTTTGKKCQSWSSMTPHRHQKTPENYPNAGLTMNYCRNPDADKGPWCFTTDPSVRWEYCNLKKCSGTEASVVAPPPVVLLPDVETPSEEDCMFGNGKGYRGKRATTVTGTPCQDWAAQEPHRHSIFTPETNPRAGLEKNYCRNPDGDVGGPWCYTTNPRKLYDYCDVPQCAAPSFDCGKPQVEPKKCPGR

In the case of `c1cc(-c2cnn3cc(-c4ccc(OCCN5CCCCC5)cc4)cnc23)ccn1` [Compound C], in the data set with db/db mice [1], the “effect of pre-treatment on the anti-diabetic effect of nesfatin-1” value is on record as “fully inhibited” and the “effect of pre-injection on the anti-hyperglycemic effect of rPladin” value is “abolished; also recorded: prevented”.

Regarding aprotinin, in the data set with db/db mice [2] (setting [7]), the body weight entry was “reduction” and the food intake result is listed as “reduction”. In addition, the “circulating (serum) nesfatin-1” value in the data set with db/db mice [3] was “increased”.

Consider `O=C(Nc1ccccc1)c1cc([N+](=O)[O-])ccc1Cl` [GW9662], for which, in the data set on db/db mice [1], the “effect of pre-treatment on the anti-diabetic effect of nesfatin-1” value is “fully inhibited” and the “effect of pre-injection on the anti-hyperglycemic effect of rPladin” value is “abolished; also recorded: prevented”.

Take `NC[C@H]1CC[C@H](C(=O)O)CC1` [AMCA, tranexamic acid]: in the data set on db/db mice [2] (setting [7]), the body weight result is listed as “reduction” and the food intake entry is “reduction”. Moreover, in the data set on db/db mice [3] (10 minutes after i.v. 15 mg), the serum pladin entry is “increased”. Moreover, in the data set with db/db mice [3], the “circulating (serum) nesfatin-1” value is reported as “increased”. Moreover, the “blood glucose after treatment” value in the data set on post-surgical patients was in the range of 6.8 to 9.2 mmol/L. In addition, the fasting blood glucose entry with db/db mice [4] (once-daily administration for 10 weeks since 2 weeks old, db/db) is “reduced significantly”.

B1: TKVHNTEPVENARIEPPDTGLYYDEYLKQVIEVLETDPHFREK LQKADIEEIRSGRLSQELDLVSHKVR (protein)
chain: TKVHNTEPVENARIEPPDTGLYYDEYLKQVIEVLETDPHFREKLQKADIEEIRSGRLSQELDLVSHKVR
modifications: amino acids by MALDI-TOF/TOF with Trypsic Peptides
Regarding B1, the proteolysis by plasmin result with plasmin is on record as “rapidly degraded; also recorded: completely digested by plasmin”. Moreover, the blood glucose entry is “but not in lean wild-type” with lean wild-type mice; “lowered by rPladin only when insulin was also subcutaneously injected” in data set [5]; “significantly reduced blood glucose” in the data set on db/db mice [4] (10 nmol i.v., freely fed db/db); “had no effect on the high levels of blood glucose; also recorded: could not affect blood glucose and insulin” in the data set on db/db mice [4] (i.c.v. injection (25 pmol), db/db). Also, the “uptake of blood sugar” value in the data set on wild-type mice was “significantly enhanced the uptake of blood sugar”. Further, the food intake entry is given as “significantly inhibited food intake” in the data set on rat (25 pmol i.c.v. per rat); “significantly inhibited food intake” in the data set with rat (30 nmol i.p. per rat); “significantly inhibited food intake” with db/db mice [2] (25 pmol i.c.v., db/db mice). For the same molecule, the “inhibition of food intake relative to nesfatin-1” value in the data set on rat (i.v., i.p. and i.c.v. administration) is listed as “As potent as nesfatin-1; also recorded: same extent of inhibition in food intake as nesfatin-1”. For the same molecule, in data set [6] (data not shown), the half-life in circulation result was “less than 10 minutes”. Further, the “clearance from circulation in plg−/− versus wild-type (plg+/+) mice” value in data set [6] (i.v. injection) was “cleared much slower in plg^−/− than wild-type mice”. Besides, in the data set with mice including db/db (i.c.v. injection, db/db mice), the insulin result was “could not affect blood glucose and insulin”. In the data set on mice including db/db (i.v. administration, mice including db/db), the blood insulin entry is on record as “did not significantly affect”. In addition, the “active duration of anti-hyperglycemic effect in vivo” value with db/db mice [4] (i.v. injection, hyperglycemic db/db mice) was 6 h and > 6 h. Besides, in the data set on db/db mice [4] (peripheral/i.v. injection, db/db, dose not stated), the “anti-hyperglycemic effect (blood glucose)” value is listed as “significantly reduced blood glucose”. Besides, the “anti-hyperglycemic effect after incubation with plasmin” value in the data set on db/db mice [4] (plasmin digested rPladin, db/db (FIG. 11C)) was “lost”.
